Target: WRN helicase core (531-950), lacking the WH domain (Homo sapiens, UniProt Q14191 531-950)
Assay: HDX-MS; protein:ssDNA 1:2.5, no nucleotide analogue added; protection of D2 hairpin/motif IV peptide only after 4 h labelling; HDX-MS: WRN stock 16.66 uM in 15 mM Hepes, 150 mM NaCl, pH 7.3; 2 min equilibration with ligand, then 16-fold dilution into deuterated buffer, room temperature, 10 s to 4 h
Details: protein: recombinant; tags: N-terminal His-Zbasic tag, TEV-cleaved; single strand

Chain of WRN helicase core (531-950), lacking the WH domain (Q14191 531-950): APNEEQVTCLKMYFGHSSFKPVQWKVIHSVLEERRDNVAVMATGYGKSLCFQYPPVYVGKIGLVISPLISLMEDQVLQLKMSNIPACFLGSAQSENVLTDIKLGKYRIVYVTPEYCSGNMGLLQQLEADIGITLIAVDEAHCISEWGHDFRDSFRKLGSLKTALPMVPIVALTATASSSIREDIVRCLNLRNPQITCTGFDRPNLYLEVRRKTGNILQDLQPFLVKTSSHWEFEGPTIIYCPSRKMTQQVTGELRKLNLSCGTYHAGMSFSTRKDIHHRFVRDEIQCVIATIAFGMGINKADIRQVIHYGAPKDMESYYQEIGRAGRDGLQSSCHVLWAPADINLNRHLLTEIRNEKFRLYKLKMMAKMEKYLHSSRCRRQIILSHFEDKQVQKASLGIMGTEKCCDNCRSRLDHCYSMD

B1: 25-nt ssDNA (ssDNA)
DNA: CCAGGTCGATAGGTTCGAATTGGTT
B1: binds.

— PMC7671478, “Structure of the helicase core of Werner helicase, a key target in microsatellite instability cancers”
